Where a chain is given by its changes, count along the chain named. Names may count otherwise. Blank lines part the entries; values can stand above or below the binder they belong to.
What was measured:
DCC = target: T1, DCC; assay: ELISA on coated DCC-His
T1 construct: coated protein in the ELISA; also called DCC-His (R&D Systems)
T1 chain: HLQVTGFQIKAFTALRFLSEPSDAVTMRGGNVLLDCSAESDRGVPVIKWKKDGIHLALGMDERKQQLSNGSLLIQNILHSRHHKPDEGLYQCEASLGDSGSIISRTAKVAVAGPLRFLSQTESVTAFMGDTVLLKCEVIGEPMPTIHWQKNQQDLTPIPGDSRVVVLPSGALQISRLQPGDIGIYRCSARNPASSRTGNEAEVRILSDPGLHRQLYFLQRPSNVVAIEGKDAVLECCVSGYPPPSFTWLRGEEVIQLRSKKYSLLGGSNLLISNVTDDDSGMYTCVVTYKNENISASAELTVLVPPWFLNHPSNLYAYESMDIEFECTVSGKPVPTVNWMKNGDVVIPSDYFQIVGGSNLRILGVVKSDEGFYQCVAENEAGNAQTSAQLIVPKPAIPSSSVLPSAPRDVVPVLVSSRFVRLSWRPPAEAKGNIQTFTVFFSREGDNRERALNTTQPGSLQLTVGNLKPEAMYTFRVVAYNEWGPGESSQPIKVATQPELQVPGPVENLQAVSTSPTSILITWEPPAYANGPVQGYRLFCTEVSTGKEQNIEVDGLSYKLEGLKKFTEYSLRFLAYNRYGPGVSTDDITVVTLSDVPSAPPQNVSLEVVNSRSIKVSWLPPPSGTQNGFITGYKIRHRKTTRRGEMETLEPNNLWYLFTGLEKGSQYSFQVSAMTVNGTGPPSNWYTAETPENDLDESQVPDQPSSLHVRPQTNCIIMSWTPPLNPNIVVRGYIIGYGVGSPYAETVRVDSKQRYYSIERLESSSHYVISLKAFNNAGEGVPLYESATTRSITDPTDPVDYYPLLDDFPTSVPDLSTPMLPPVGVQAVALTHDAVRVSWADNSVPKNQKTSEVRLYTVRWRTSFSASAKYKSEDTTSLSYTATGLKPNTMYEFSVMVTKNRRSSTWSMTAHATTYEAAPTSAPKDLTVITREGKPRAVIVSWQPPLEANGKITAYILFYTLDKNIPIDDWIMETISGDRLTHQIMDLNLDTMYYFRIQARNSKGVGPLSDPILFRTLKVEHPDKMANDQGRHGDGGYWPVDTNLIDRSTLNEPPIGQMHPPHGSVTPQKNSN
Procedure: (§1) Recombinant purified ECDs (50-150 ng) of each putative target protein were coated, incubated with 150 ng of the indicated primary antibody, and binding was detected using a peroxidase-conjugated anti-human Fab secondary antibody. Heatmap represents averages of technical triplicates. (8B) Target validation via siRNA knockdown. H929 cells were transfected with siRNA pools targeting the putative antibody targets ICAM1, CADM1, and PTPRG. Cells were then subjected to cognate IgG binding analysis via flow cytometry. (NT, non-targeting siRNA).
(§2) ELISA ELISA was conducted as described previously. Briefly, 50-150 ng of antigen was coated overnight in half-area 96-well plates at 4° C., blocked with 3% BSA at 37° C. for 1 h, and 150 ng of chimeric rabbit/human IgG1 was added, incubating for 2 h at 37° C. […] After incubating at 37° C. for 15 min-1 h (depending on intensity of controls), data were acquired using a SpectraMax M5 plate reader (Molecular Devices).

[1] = target: T2, GARS-His (Sino Biological) (human, UniProt P41250 37-739, limits assumed); assay: ELISA on coated GARS-His, 150 ng IgG1; None 0.099
T2 construct: Bought; also called GARS1; glycyl-tRNA synthetase; not shown: His tag of the bought protein
T2 sequence: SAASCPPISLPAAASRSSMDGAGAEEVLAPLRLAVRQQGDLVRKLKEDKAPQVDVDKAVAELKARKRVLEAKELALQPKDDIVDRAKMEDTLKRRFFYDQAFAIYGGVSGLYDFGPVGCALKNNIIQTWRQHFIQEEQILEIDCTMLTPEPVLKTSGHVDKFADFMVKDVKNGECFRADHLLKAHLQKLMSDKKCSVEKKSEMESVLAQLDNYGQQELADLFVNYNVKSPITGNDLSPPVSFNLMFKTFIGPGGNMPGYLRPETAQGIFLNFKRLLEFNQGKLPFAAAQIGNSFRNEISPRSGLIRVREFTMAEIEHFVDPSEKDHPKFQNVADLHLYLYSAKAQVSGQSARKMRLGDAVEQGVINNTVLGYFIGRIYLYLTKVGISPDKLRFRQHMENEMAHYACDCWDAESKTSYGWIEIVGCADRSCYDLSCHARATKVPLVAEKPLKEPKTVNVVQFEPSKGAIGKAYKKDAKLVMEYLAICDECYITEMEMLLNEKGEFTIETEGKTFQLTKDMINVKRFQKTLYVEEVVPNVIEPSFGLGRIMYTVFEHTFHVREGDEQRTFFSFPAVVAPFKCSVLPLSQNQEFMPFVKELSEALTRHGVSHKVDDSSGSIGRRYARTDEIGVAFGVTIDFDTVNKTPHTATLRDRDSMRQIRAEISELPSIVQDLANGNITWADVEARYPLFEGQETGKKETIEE
Procedure: as §1, §2

IL13RA1 = target: T3, IL13RA1; assay: ELISA on coated IL13RA1-Fc-His, 150 ng IgG1; None 0.094
T3 construct: coated protein in the ELISA; also called IL13RA1-Fc-His (R&D Systems)
T3 chain: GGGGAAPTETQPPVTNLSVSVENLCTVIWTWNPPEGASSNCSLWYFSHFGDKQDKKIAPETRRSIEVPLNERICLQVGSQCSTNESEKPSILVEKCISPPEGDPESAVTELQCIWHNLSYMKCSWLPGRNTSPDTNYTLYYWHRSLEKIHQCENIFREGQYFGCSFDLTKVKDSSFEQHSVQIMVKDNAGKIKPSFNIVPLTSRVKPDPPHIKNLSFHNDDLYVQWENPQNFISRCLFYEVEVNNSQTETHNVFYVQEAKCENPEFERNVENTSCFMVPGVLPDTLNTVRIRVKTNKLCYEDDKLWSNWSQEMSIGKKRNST
Procedure: as §1, §2

ELISA Absorbance (405 nm-570 nm) [1]: 0.099
ELISA Absorbance (405 nm-570 nm) (IL13RA1): 0.102
B1: HW-42 chimeric rabbit-human IgG1 LA/LA/PG (antibody, V domains shown)
VH: QSVKESEGGLFKPADTLTLTCTVSGFSLSSNEISWVRQAPGEGLEYIGIIDTGGRAYYAVWARSRSTITRNTNLNTVTLKMTSLTAADTATYFCARGGVDTEWYAFSSWGPGTLVTVPS
VL: SFVLTQPASVQVNLGQTVSLTCTADTLSRRYASWYQQKPGQAPVLLIFRDTSRPSGVPDRFSGSSSGDTATLTISGAQAGDEADYYCATSDGSGSNYQYVFGGGTQLTVTG
notes: Fc-silenced (L234A/L235A/P329G) IgG1, lambda; Alexa Fluor 647-labeled in single-step flow cytometry; Cluster C-1
binding result (DCC): no binding (tested: 150 ng IgG1 per well)

ELISA Absorbance (405 nm-570 nm) [1]: 0.079
ELISA Absorbance (405 nm-570 nm) (IL13RA1): 0.08
B2: HW-97 chimeric rabbit-human IgG1 LA/LA/PG (antibody, V domains shown)
VH: QKQLVESGGRLVTPGTPLTLTCTVTGIDLSSHGMSWVRQAPGKGLEWIGVIYPSGSTWYASWARGRFTISKTSTTVDLKMTSLTTEDTATHFCARGDVGGADNNIWGPGTLVTVSS
VL: B1 VL with N13D, D25E, R30S, F48Y, D68N, N96S
notes: Fc-silenced (L234A/L235A/P329G) IgG1, lambda; Alexa Fluor 647-labeled in single-step flow cytometry; Prototype of cluster C-97
binding result (DCC): no binding (tested: 150 ng IgG1 per well)

ELISA Absorbance (405 nm-570 nm) [1]: 0.074
ELISA Absorbance (405 nm-570 nm) (IL13RA1): 0.073
B3: HW-17 chimeric rabbit-human IgG1 LA/LA/PG (antibody, V domains shown)
VH: QSLGESRGRLVTPDETLTLTCTVSGIDLSSNAMSWVRQAPGEGLEWIGTINTGGRAYYASWAKGRFTISRTSTTVDLKMTSLTTEDTATYFCARERYSDGRAYDIWGPGTLVTISS
VL: B1 VL with F48Y, R49T, T51S, S52N, V57I, D68N, S90D, N96I
notes: as for B1
binding result (DCC): no binding (tested: 150 ng IgG1 per well)

ELISA Absorbance (405 nm-570 nm) [1]: 0.103
ELISA Absorbance (405 nm-570 nm) (IL13RA1): 0.074
B4: HW-25 chimeric rabbit-human IgG1 LA/LA/PG (antibody, V domains shown)
VH: QSLEESGGRLVTPGTPLTLTCTVSGFSLSSYAMGWVRQAPGKGLEWIGIIDSRGSTYYATWAKGRFTISKTSTTVDLKITSPTTEDTATYFCAREDSYYYDSFNLWGPGTLVTVSS
VL: B1 VL with F48Y, D68N, N96S, Y99C
notes: as for B1
binding result (DCC): no binding (tested: 150 ng IgG1 per well)

ELISA Absorbance (405 nm-570 nm) [1]: 0.088
ELISA Absorbance (405 nm-570 nm) (IL13RA1): 0.086
B5: HW-113 chimeric rabbit-human IgG1 LA/LA/PG (antibody, V domains shown)
VH: QKQLVESGGGLVQPGGSLTLTCTVSGFSLNKYYMGWFRQAPGKGLEWIGVISRSGDTYYSSWAKGRFTISKASTTVDLRITSPTTEDTATYFCARDASSPGFHGDRLDLWGQGTLVTVSS
VL: B1 VL with R30S, F48Y, D68N, S93I, Q98L, Y99W
notes: Fc-silenced (L234A/L235A/P329G) IgG1, lambda; Alexa Fluor 647-labeled in single-step flow cytometry
binding result (DCC): no binding (tested: 150 ng IgG1 per well)

ELISA Absorbance (405 nm-570 nm) [1]: 0.091
ELISA Absorbance (405 nm-570 nm) (IL13RA1): 0.08
B6: HW-1 chimeric rabbit-human IgG1 LA/LA/PG (antibody, V domains shown)
VH: QSLEESGGGLFKPTDTLTLTCTASGFSLGSSYAISWVRQAPGKELEWIGTIDSGRAYYARWAKSRSTITRNTNENTVTLKMTSLTAADTATYFCARDLIPTYSQDIWGPGTLVTISS
VL: B1 VL with F48Y, D68N, S95N, N96S, G111S
notes: Fc-silenced (L234A/L235A/P329G) IgG1, lambda; Alexa Fluor 647-labeled in single-step flow cytometry; Prototype of cluster C-1
binding result (DCC): no binding (tested: 150 ng IgG1 per well)

From patent US20260049134A1 (UNIVERSITY OF FLORIDA RESEARCH FOUNDATION, published 2026)
